Data set [1] has as its target FlgP (basal disk protein, C. jejuni 81-176, in the motor in situ) (C. jejuni 81-176 (endogenous in minicells)). The data set can be described thus: cryo-EM structure; in situ single-particle analysis of motors in C. jejuni ΔflhG ΔflaAB minicells; C17 focused refinement of the periplasmic scaffold and first basal disk ring (7.9 Å); AlphaFold2 models docked or flexibly fitted into the map.

Data set [2] concerns the molecule itself. The data set is described as above.

Molecule “FlgP (basal disk protein, C. jejuni 81-176, in the motor in situ) (natural protein)” registered a stoichiometry N in data set [1] of 51.

B1: FliL (C. jejuni 81-176, endogenous) (natural protein)
chain: MDEELENEETKKKKGGSLVIIIVILLFVLLLSIMGVIAWLISSSSSDESEVKEAPKEEAKADKPKVSAPTQRGSDFANIGPMYPLDPFTLNLLSDSGSRYVKCTIELEQNSELLKPELDKKVPVIRDIIIRTLTAKTFEEVSTQKGKERLKDELVGKINEILTDGFIKNVYFTDFVVS
notes: FliL, flagellar protein forming an arc of four copies around the MotB linker in each asymmetric unit; source: endogenous, C. jejuni 81-176: ΔflhG ΔflaAB minicells imaged in situ; lysates of formaldehyde-crosslinked ΔpflA or ΔpflB cells carrying the PflA-FLAG or PflB-FLAG plasmid
Turning to B1, the “stoichiometry N” value in data set [2] came to 4.

One may read the stoichiometry N as a count of units in the complex or per binding partner.
